Experimental findings from US20150210998 are described below.

For data set [1], the target named is HPV16 E6 protein (recombinant, full-length) (UniProt P03126).
The target of data set [2] is UbcH7˜125I-ubiquitin thioester (UniProt P68036).
Sequence of UbcH7˜125I-ubiquitin thioester (P68036 whole entry, looked up): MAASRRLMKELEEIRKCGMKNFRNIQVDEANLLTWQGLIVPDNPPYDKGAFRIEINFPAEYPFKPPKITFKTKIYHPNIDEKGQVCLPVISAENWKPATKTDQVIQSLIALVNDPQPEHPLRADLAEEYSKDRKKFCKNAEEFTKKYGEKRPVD

Sequence of HPV16 E6 protein (recombinant, full-length) (P03126 whole entry): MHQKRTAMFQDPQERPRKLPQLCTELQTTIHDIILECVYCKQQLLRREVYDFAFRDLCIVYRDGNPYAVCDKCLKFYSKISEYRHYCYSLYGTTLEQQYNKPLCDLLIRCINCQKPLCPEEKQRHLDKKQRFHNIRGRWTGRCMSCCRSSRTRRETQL

On to “His6-E6AP ligase (full-length, baculovirus-expressed)”, for which the “kcat of 125I-polyubiquitin chain formation in the presence of E6” value in data set [1] amounted to 0.81±0.045 s^-1 in its presence. Besides, in data set [2], the Km- turned out to be 0.046 µM.

“GST-E6AP ligase (wild-type, bacterially expressed fusion protein)”: the Km- in data set [2] is 0.058 µM.
